Experimental data published in patent publication US20190127481A1 (UNIVERSIT T Z RICH, published 2019).

Experiments:
[1] = molecular target: T1, HER2 (form in the assay not stated) (human, UniProt P04626 23-652, limits assumed); test: method not stated
[2] = molecular target: T1, HER2 (form in the assay not stated); test: method and HER2 form not stated
[3] = molecular target: T2, HER2 (ErbB2/Neu) on the surface of HER2-overexpressing cancer cells (human, UniProt P04626 23-1255); test: flow cytometry on intact BT474 cells, Alexa488-labelled agent
T2 construct: whole, on cells; also called HER2 on BT474, SkBr3, SkOv3 cells
Description: Cells were detached by collagenase and EDTA for 5 min at 37° C. The solution was quenched by addition of medium and centrifuged at 300 g for 3 min. Cells were washed twice in warm PBS. […] Internalization was blocked by incubation in PBS containing 0.2% NaN₃ and 1% BSA for 30 min at 37° C.
For each time point, a 1 ml aliquot of cells is withdrawn and subjected to FACS. Since the applied concentrations of the labeled ligand conjugates are very low, and since the time resolution of the measurement is to be maintained to ensure the accuracy of the on-rate determination, the samples are processed without further washing. For each time point, at least 10⁴ intact cells (gated as a uniform population on a FSC/SSC scatter plot) are counted, and the MFI (mean fluorescence intensity) is recorded.
Corresponding to 100 μl cell suspension, samples were washed twice in 1 ml PBS (0.2% NaN₃, 1% BSA) and centrifuged at 600 g for 30 sec at room temperature. Cells were resuspended in 1 ml PBS (0.2% NaN₃, 1% BSA) containing 100 nM of equivalent unlabeled binding agent. The dissociation reaction was incubated for the indicated times (15, 30, 60, 120, 180 and 240 min) at room temperature while continuously stirring in the dark. Dissociation was stopped by placing the cell pellets on ice. Each sample was washed once with 1 ml cold PBS.

[4] = molecular target: T2, HER2 (ErbB2/Neu) on the surface of …; test: dissociation from BT474 cells by flow cytometry in the presence of a competing DARPin

B1: DARPin 929 (designed binder)
chain: MRGSHHHHHHGSDLGKKLLEAARAGQDDEVRILMANGADVNAHDFYGITPLHLAANFGHLEIVEVLLKHGADVNAFDYDNTPLHLAADAGHLEIVEVLLKYGADVNASDRDGHTPLHLAAREGHLEIVEVLLKNGADVNAQDKFGKTAFDISIDNGNEDLAEILQKLN
modifications: Alexa Fluor-488 label in the flow-cytometry kinetics (attachment site not given)
notes: Member of the 9XX collection
Kd [1]: 1 nM | Kd [2]: 3.8 nM | koff [2]: 0.0008 s⁻¹ | kon [2]: 200000 M⁻¹ s⁻¹ | Kd [3]: 33.5 nM | koff [3]: 0.00221 s⁻¹ | kon [3]: 69000 M⁻¹ s⁻¹

B2: DARPin G3 (designed binder)
chain: GSDLGKKLLEAARAGQDDEVRILMANGADVNAKDEYGLTPLYLATAHGHLEIVEVLLKNGADVNAVDAIGFTPLHLAAFIGHLEIAEVLLKHGADVNAQDKFGKTAFDISIGNGNEDLAEILQKLN
Kd [1]: 0.09 nM

B3: 9_29-(G4S)4-G3 (designed binder)
chain: MRGSHHHHHHGSDLGKKLLEAARAGQDDEVRILMANGADVNAHDFYGITPLHLAANFGHLEIVEVLLKHGADVNAFDYDNTPLHLAADAGHLEIVEVLLKYGADVNASDRDGHTPLHLAAREGHLEIVEVLLKNGADVNAQDKFGKTAFDISIDNGNEDLAEILQKLGGGGSGGGGSGGGGSGGGGSRSDLGKKLLEAARAGQDDEVRILMANGADVNAKDEYGLTPLYLATAHGHLEIVEVLLKNGADVNAVDAIGFTPLHLAAFIGHLEIAEVLLKHGADVNAQDKFGKTAFDISIGNGNEDLAEILQKLN
modifications: fluorescently labelled in FIG. 18A (dye and site not carried by the letters)
notes: 20 amino acid (G4S)4 linker; also called 9_20_G
fold lower off-rate than monovalent G3 [4]: 10 fold

B4: DARPin 926 (designed binder)
chain: MRGSHHHHHHGSDLGKKLLEAARAGQDDEVRILMANGADVNAKDFYGITPLHLAAAYGHLEIVEVLLKHGADVNAHDWNGWTPLHLAAKYGHLEIVEVLLKHGADVNAIDNAGKTPLHLAAAHGHLEIVEVLLKYGADVNAQDKFGKTAFDISIDNGNEDLAEILQKLN
notes: Member of the 9XX collection
Kd [1]: 1 nM | Kd [2]: 1.4 nM | koff [2]: 0.0001 s⁻¹ | kon [2]: 70000 M⁻¹ s⁻¹

B5: G3-(G4S)4-9_26 (designed binder)
chain: MRGSHHHHHHGSDLGKKLLEAARAGQDDEVRILMANGADVNAKDEYGLTPLYLATAHGHLEIVEVLLKNGADVNAVDAIGFTPLHLAAFIGHLEIAEVLLKHGADVNAQDKFGKTAFDISIGNGNEDLAEILQKLGGGGSGGGGSGGGGSGGGGSRSDLGKKLLEAARAGQDDEVRILMANGADVNAKDFYGITPLHLAAAYGHLEIVEVLLKHGADVNAHDWNGWTPLHLAAKYGHLEIVEVLLKHGADVNAIDNAGKTPLHLAAAHGHLEIVEVLLKYGADVNAQDKFGKTAFDISIDNGNEDLAEILQKLN
modifications: fluorescently labelled in FIG. 18A (dye and site not carried by the letters)
notes: Opposite orientation of 6_20_G; also called G_20_6
fold lower off-rate than monovalent G3 [4]: 10 fold

B6: 9_26-(G4S)4-G3 (designed binder)
chain: MRGSHHHHHHGSDLGKKLLEAARAGQDDEVRILMANGADVNAKDFYGITPLHLAAAYGHLEIVEVLLKHGADVNAHDWNGWTPLHLAAKYGHLEIVEVLLKHGADVNAIDNAGKTPLHLAAAHGHLEIVEVLLKYGADVNAQDKFGKTAFDISIDNGNEDLAEILQKLGGGGSGGGGSGGGGSGGGGSRSDLGKKLLEAARAGQDDEVRILMANGADVNAKDEYGLTPLYLATAHGHLEIVEVLLKNGADVNAVDAIGFTPLHLAAFIGHLEIAEVLLKHGADVNAQDKFGKTAFDISIGNGNEDLAEILQKLN
modifications: fluorescently labelled in the dissociation assay; dye and site not stated
notes: 20 amino acid (G4S)4 linker; also called 6_20_G
fold lower off-rate than monovalent G3 [4]: 10 fold

B7: DARPin H14 (designed binder)
chain: GSDLGKKLLEAARAGQDDEVRILMANGADVNATDIHGHTPLHLAAAMGHLEIVEVLLKNGADVNANDWRGFTPLHLAALNGHLEIVEVLLKNGADVNATDTAGNTPLHLAAWFGHLEIVEVLLKNGADVNAQDKFGKTAFDISIDNGNEDLAEILQKLN
Kd [2]: 0.2 nM | koff [2]: 0.0001 s⁻¹ | kon [2]: 410000 M⁻¹ s⁻¹ | Kd [3]: 0.97 nM | koff [3]: 0.000179 s⁻¹ | kon [3]: 196000 M⁻¹ s⁻¹
